The text below walks through data of patent US20200010567A1 (NEURIMMUNE, published 2020).

In general, EC50 refers to the concentration needed to bring the measured effect to its halfway point. High values mean lower potency in that assay, low ones higher potency in that assay.

Some results are limits rather than exact numbers.

The target of experiment [1] is T1, GA6: H-(GA)6HHHHHH-NH2.
T1 peptide: H-GAGAGAGAGAGAHHHHHH-NH2
The experiment in a line: indirect ELISA, coated His-tagged peptide. The source says: In brief, dipeptide repeat proteins were synthesized and purified by Schafer-N (Copenhagen, Denmark): GA₂₀: H-(GA)₂₀HHHHHH-NH₂; GA₁₀: H-(GA)₁₀HHHHHH-NH₂; GA₆: H-(GA)₆HHHHHH-NH₂; GA₅: H-(GA)₅HHHHHH-NH₂; GA₄: H-(GA)₄HHHHHH-NH₂; GA₃: H-(GA)₃HHHHHH-NH₂; GA₂: H-(GA)₂HHHHHH-NH₂; GP₂₀: H-(GP)₂₀HHHHHH-NH₂; GP₁₀: H-(GP)₁₀HHHHHH-NH₂; GP₆: H-(GP)₆HHHHHH-NH₂; GP₅: H-(GP)₅HHHHHH-NH₂; GP₄: H-(GP)₄HHHHHH-NH₂; GP₃: H-(GP)₃HHHHHH-NH₂; GP₂: H-(GP)₂HHHHHH-NH₂. GR₂₀: H-(GR)₂₀HHHHHH-NH₂; GR₁₀: H-(GR)₁₀HHHHHH-NH₂; GR₆: H-(GR)₆HHHHHH-NH₂; GR₅: H-(GR)₅HHHHHH-NH₂; GR₄: H-(GR)₄HHHHHH-NH₂; GR₃: H-(GR)₃HHHHHH-NH₂; GR₂: H-(GR)₂HHHHHH-NH₂; PA₂₀: H-(PA)₂₀HHHHHH-NH₂; PA₁₀: H-(PA)₁₀HHHHHH-NH₂; PA₆: H-(PA)₆HHHHHH-NH₂; PA₅: H-(PA)₅HHHHHH-NH₂; PA₄: H-(PA)₄HHHHHH-NH₂; PA₃: H-(PA)₃HHHHHH-NH₂; PA₂: H-(PA)₂HHHHHH-NH₂; PR₂₀: H-(PR)₂₀HHHHHH-NH₂; PR₁₀: H-(PR)₁₀HHHHHH-NH₂; PR₆: H-(PR)₆HHHHHH-NH₂; PR₅: H-(PR)₅HHHHHH-NH₂; PR₄: H-(PR)₄HHHHHH-NH₂; PR₃: H-(PR)₃HHHHHH-NH₂; PR₂: H-(PR)₂HHHHHH-NH₂. 96-well microplates (Corning Incorporated, Corning, USA) were coated with dipeptide repeat protein peptides at a concentration of 50 μg/ml in coating buffer (15 mM Na₂CO₃, 35 mM NaHCO₃, pH 9.42). Non-specific binding sites were blocked for 1 h at room temperature with PBS/0.1% Tween®-20 containing 2% BSA (Sigma-Aldrich, Buchs, Switzerland). Primary antibodies were diluted to the indicated concentrations and incubated 1 h at room temperature, followed by incubation with a donkey anti-human IgG Fcγ-specific antibody conjugated with HRP (Jackson ImmunoResearch Laboratories, Inc., West Grove, USA). Binding was determined by measurement of HRP activity in a standard colorimetric assay. EC₅₀ values were estimated by non-linear regression using GraphPad Prism software (San Diego, USA).

The target of experiment [2] is T2, aggregated C9orf72 (GA)20 DPR protein peptide preparation (C-terminal amide).
T2 construct: also called aggregated (GA)20; amyloid-fibril like aggregated (GA)20
T2 peptide: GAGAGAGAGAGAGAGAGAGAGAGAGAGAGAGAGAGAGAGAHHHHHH
As to the kind of experiment: indirect ELISA, coated preparation 5 ug/ml. The method, then: (§1) 96-well microplates (Corning Incorporated, Corning, USA) were coated with monomeric and aggregated (GA)₂₀ DPR protein peptide preparations at a concentration of 5 μg/ml in coating buffer (15 mM Na₂CO₃, 35 mM NaHCO₃, pH 9.42). Non-specific binding sites were blocked for 1 h at room temperature with PBS/0.1% Tween®-20 containing 2% BSA (Sigma-Aldrich, Buchs, Switzerland). Primary antibodies were diluted to the indicated concentrations and incubated 1 h at room temperature, followed by incubation with a donkey anti-human IgG Fcγ-specific antibody conjugated with HRP (Jackson ImmunoResearch Laboratories, Inc., West Grove, USA). Binding was determined by measurement of HRP activity in a standard colorimetric assay. EC₅₀ values were estimated by non-linear regression using GraphPad Prism software (San Diego, USA).
A general note: ELISA stands for enzyme-linked immunosorbent assay.

Experiment [3] addresses T3, monomeric C9orf72 (GA)20 DPR protein peptide preparation (C-terminal amide).
T3 construct: also called monomeric (GA)20
T3 peptide: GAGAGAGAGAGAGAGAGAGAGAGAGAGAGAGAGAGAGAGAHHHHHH
As to the kind of experiment: indirect ELISA, coated preparation 5 ug/ml. The method, then:
as §1

Experiment [4] addresses T4, GA20: H-(GA)20HHHHHH-NH2 (C-terminal amide).
T4 peptide: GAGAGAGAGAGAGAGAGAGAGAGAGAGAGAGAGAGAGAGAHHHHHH
As to the kind of experiment: sandwich ELISA, peptide captured by anti-His antibody. The source says:
(§2) In brief, His-tagged dipeptide repeat protein peptides were synthesized and purified by Schafer-N(Copenhagen, Denmark): GA₂₀: H-(GA)₂₀HHHHHH-NH₂; GA₁₀: H-(GA)₁₀HHHHHH-NH₂; GA₆: H-(GA)₆HHHHHH-NH₂; GA₅: H-(GA)₅HHHHHH-NH₂; GA₄: H-(GA)₄HHHHHH-NH₂; GA₃: H-(GA)₃HHHHHH-NH₂; GA₂: H-(GA)₂HHHHHH-NH₂; GP₂₀: H-(GP)₂₀HHHHHH-NH₂; GP₁₀: H-(GP)₁₀HHHHHH-NH₂; GP₆: H-(GP)₆HHHHHH-NH₂; GP₅: H-(GP)₅HHHHHH-NH₂; GP₄: H-(GP)₄HHHHHH-NH₂; GP₃: H-(GP)₃HHHHHH-NH₂; GP₂: H-(GP)₂HHHHHH-NH₂. 96-well microplates (Corning Incorporated, Corning, USA) were coated with monoclonal mouse anti-His tag antibody (Takara Bio Europe/Clontech, Saint-Germain-en-Laye, France) at a concentration of 10 μg/ml in coating buffer (15 mM Na₂CO₃, 35 mM NaHCO₃, pH 9.42) overnight at 4° C. Non-specific binding sites were blocked for 1 h at room temperature with PBS/0.1% Tween®-20 containing 2% BSA (Sigma-Aldrich, Buchs, Switzerland). After a washing step, His-tagged C9orf72 DPR protein peptides at equal concentration of either 1 μM or 5 μM in PBS (pH 7.4) were added for target-trapping by the anti-His tag antibody for 1 h at room temperature. […] Antibody binding to DPR protein peptides was detected by a donkey anti-human IgG Fcγ-specific antibody conjugated with HRP at 1:5000 dilution (Jackson ImmunoResearch Laboratories, Inc., West Grove, USA) for 1 h at RT. Binding was determined by measurement of HRP activity in a standard colorimetric assay. EC₅₀ values were estimated by non-linear regression using GraphPad Prism software (San Diego, USA).

Experiment [5] deals with T5, GA10: H-(GA)10HHHHHH-NH2 (C-terminal amide).
T5 peptide: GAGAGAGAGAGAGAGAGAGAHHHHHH
The description is as above.
From the text: as §2

B1: NI-308.5G2 (antibody, V domains shown)
VH: EVQLVQSGADLRNPGASVTVSCTASGYHFADNAINWLRQAPGQRLEWMGWINIYSGNTKYSQNFQGRVTFTRNTSASTAFMHLRSLRSEDTAVYFCARDPDSSGYYLPYFDYWGQGTLVTVSS
VL: DIQLTQSPDSLTLSLGERATINCKSSQSVFYNSNNKNYLAWYQQKPGQPPKLLMYWASTRESGVTDRFSGSGSGTDFTLTITNLQAEDVAVYYCQQFYSSPLTFGGGTKVEIK
notes: Recombinant complete human IgG1, kappa
B1 displayed an EC50 in experiment [1] above 200 nM.

B2: NI-308.6B11 (antibody, V domains shown)
VH: EVQLVQSGAEVKRPGASVKVSCKVSGYTLTELSMHWVRQAPGKGLEWMGGFDPEDGETVYAQKFQGRVTMTEDTSTDTAYMELSSLRSEDTALYHCATYGSSWHWNEGNEGSYYFDYWGQGTLVTVSS
VL: CDIQMTQSPSSLSASVGDRVTITCQASQDISIYLNWYQQKPGKAPKLLIYDASNLETGVPSRFSGSGSGTDFTFTISGLQPEDVARYYCQQYDDLPITFGQGTRLEIK
notes: as for B1
In the case of B2, the EC50 in experiment [1] is above 200 nM.

B3: NI-308.15O7 (antibody, V domains shown)
VH: QVQLVESGGGVVQPGRSLRLSCAASGFTFSNHAMHWVRQAPGKGLEWVAVISYDGENTYYADSIEGRFTISRDNFKNTLFLQMYSLTADDTAMYFCARGGRRGHFTSYYLDYWGQGTLVTVSS
VL: CDIQMTQSPSSLSASVGDRVTITCRASQNIDKYLNWYQQIPGKAPKLLIYAASSLHSGVPSRFSGSGSGTDFSLTISSLQPEDFAIYYCQQSYSSFRTFGQGTKLEIK
Turning to B3, the EC50 was 0.78 nM in experiment [2], 0.53 nM in experiment [3], 9 nM in experiment [4] and above 400 nM in experiment [5].

B4: NI-308.45C2 (antibody, V domains shown)
VH: QLQLQESGPGLVKPSQILSLTCAISGDSVFSNSAAWNWIRQSPSRGLEWLGRTYYRSKWDNDYAPSVKSRISINPDTSKNQFSLQLNSVTPEDTAVYYCAREVAYCGGDCYSVSFDYWGQGTLVTVSS
VL: not shown
notes: as for B1
Turning to B4, in experiment [1], the EC50 was above 200 nM.

B5: NI-308.18F7 (antibody, V domains shown)
VH: QVQLQESGPGLVKPSETLSVTCTVSGGSINDYYWNWIRQPAGKGLEWIGRIYASGTINYNPSLQSRVTMSIDTSKNQFSLDLISVSAADTAVYYCARWGQVVGDYYYGMDVWGQGTTVTVSS
VL: EIVLTQSPLSLSVTPGEPASISCKSSQSLQHTNGYNYLDWYLLKPGQSPQLLIFLTSNRASGVPDRFSGSGSGTNFTLKISRVEAEDVGVYYCMEGIQLWTFGQGTKLEIK
notes: as for B1
As for B5, the EC50 in experiment [1] is above 200 nM; in experiment [2] it was 0.89 nM; in experiment [3], 0.87 nM; in experiment [4] it was 0.45 nM; in experiment [5] it was 0.34 nM.

B6: NI-308.28G1 (antibody, V domains shown)
VH: QVQLQESGPRLVKPSETLSLTCTVAGGSVNSYYWTWIQQSPGKGLEWLGRIYIAGRTNYNPSLTSRIALSVDTSRNQLSLKLTSVTAADTAIYYCARWGAESGDYYYGVDVWGPGTLVTVSS
VL: EIVMTQSPLSLPVTPGEPASISCKSSEGLLHSNGYTYLDWYLQKPGQAPQLLIFLASNRAAGVPDRFSGSGSGTDFTLKISRVEAEDVGVYYCMQAIQSPWTFGPGTKVEIK
notes: as for B1
Turning to B6, the EC50 in experiment [4] was found to be 0.4 nM; in experiment [5] it was 0.46 nM.
